Experimental data as given in patent publication US20240209076A1 (KODIAK SCIENCES, published 2024).
Positions count from the first letter of the chain named. Names and notes keep the numbering of the source.

Legend:
recombinant human IL-6 [1] = biological target: T1, recombinant human IL-6 (human, UniProt P05231 30-212); assay: SPR, antibody captured on Protein A, 37 C
Method: (§1) Antibodies were captured on a Protein A chip (GE) by injecting 1:20 cell supernatant dilutions at 10 μL/min for 60 seconds. […] The sensor chip was regenerated by a 60 seconds injection of 10 mM Glycine pH 1.7 at the flow rate of 50 μL/min. […] For this setup, 1 μg/mL of purified antibody was injected over a Protein A chip at 10 μL/min for 25 seconds. […] The sensor chip was regenerated by a 60 seconds injection of 10 mM Glycine pH 1.7 at flow rate of 50 μL/min. Data analysis for supernatant and purified samples were performed using BIAevaluation software (GE). All sensorgrams were double reference subtracted and fit using a 1:1 Langmuir binding model.

human IL-6 [2] = biological target: T2, human IL-6 (human, UniProt P05231 30-212); assay: SPR (Biacore), purified antibody on Protein A chip, IL-6 flowed, 37 C
Method: as §1
T2 sequence (P05231 30-212 limits assumed): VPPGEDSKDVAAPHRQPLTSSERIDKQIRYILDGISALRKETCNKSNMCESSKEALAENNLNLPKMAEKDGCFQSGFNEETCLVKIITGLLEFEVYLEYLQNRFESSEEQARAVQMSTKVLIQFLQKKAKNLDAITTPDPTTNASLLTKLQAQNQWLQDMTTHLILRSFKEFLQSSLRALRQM

human IL-6 [3] = biological target: T2, human IL-6; assay: SPR (Biacore), supernatant antibody on Protein A chip, IL-6 flowed, 37 C
VEGF-A165 [4] = biological target: T3, VEGF-A165 (UniProt P15692-4 27-191); assay: Biacore T200 SPR at 37 C, binder captured on Protein A chip, VEGF-A165 0.19 to 15 nM in five steps, 60 min dissociation, 1:1 Langmuir fit
T3 construct: analyte of the Biacore assays
Method: FIGS. 14A-14F illustrate the results for a series of Biacore assays used to determine the affinity between Anti-VEGF agents and VEGF. Binding kinetics between molecules were measured using a Biacore T200 (GE Healthcare) at 37° C. in buffer HBS-EP+ containing 1 mg/mL BSA. […] The sensor chip surface was regenerated by 60 seconds injection of 10 mM Glycine, pH 1.7 at a flow rate of 50 μl/min. All sensorgrams were double reference subtracted and fit using a 1:1 Langmuir binding model.

VEGF [5] = biological target: VEGF (UniProt P15692-4 27-191, limits assumed); assay: cell-based or functional assay
Target sequence in this assay (P15692 other isoform, or with tags, fused parts or gaps limits assumed): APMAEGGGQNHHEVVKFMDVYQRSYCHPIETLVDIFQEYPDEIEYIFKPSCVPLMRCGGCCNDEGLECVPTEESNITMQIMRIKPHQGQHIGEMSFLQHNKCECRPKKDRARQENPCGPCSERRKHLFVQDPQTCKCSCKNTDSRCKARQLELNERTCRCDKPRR

VEGF [6] = biological target: T4, VEGF (UniProt P15692-4 27-191, limits assumed); assay: KinExA 3200, in solution, 37 C
T4 construct: also called VEGF-A
T4 sequence (P15692 other isoform, or with tags, fused parts or gaps limits assumed): as above

human IL-6 [7] = biological target: T5, human IL-6 (human, UniProt P05231 30-212); assay: KinExA 3200, in solution, 37 C
T5 sequence (P05231 30-212 limits assumed): as the sequence (P05231 30-212 limits assumed) above

human IL-6 [8] = biological target: T5, human IL-6; assay: KinExA 3200, kinetic measurement, 37 C
VEGF [9] = biological target: T4, VEGF; assay: KinExA 3200, calculated as Kd x kon, 37 C
VEGF [10] = biological target: T4, VEGF; assay: KinExA 3200, kinetic measurement, 37 C
human IL-6 [11] = biological target: T5, human IL-6; assay: KinExA 3200, calculated as Kd x kon, 37 C
recombinant human IL-6 [12] = biological target: T1, recombinant human IL-6; assay: IL-6/IL-6R competitive ELISA as in example 3
Method: The plate was blocked in 2% bovine serum albumin (BSA) in PBS-Tween (PBST) for 2 hours. […] This mixture was then added to the ELISA plate following a wash step.

[13] = biological target: T6, biotinylated VEGF (R&D Systems) (UniProt P15692-4 27-191, limits assumed, biotinylated); assay: VEGF/VEGFR competitive ELISA as in example 3
T6 construct: also called btVEGF; bt-VEGF
Method: The plate was blocked in 2% bovine serum albumin (BSA) in PBS-Tween (PBST) for 2 hours.
This assay was performed as described in example 3.

VEGF-A165 [14] = biological target: T3, VEGF-A165; assay: SPR (Biacore T200), 37 C, binder captured on a Protein A chip, VEGF-A165 0.19 to 15 nM flowed over, 1:1 Langmuir fit

T3 sequence (P15692 other isoform, or with tags, fused parts or gaps limits assumed): as the sequence (P15692 other isoform, or with tags, fused parts or gaps limits assumed) above
T1 sequence (P05231 30-212 limits assumed): as the sequence (P05231 30-212 limits assumed) above
T6 sequence (P15692 other isoform, or with tags, fused parts or gaps limits assumed): as the sequence (P15692 other isoform, or with tags, fused parts or gaps limits assumed) above

B1: anti-IL-6 antibody, heavy chain S35H G66D, light chain M32L/M50D/N52S/M88Q (antibody, human IgG1, V domains shown)
VH: EVQLVESGGGLVQPGGSLRLSCAASGFTFSPFAMHWVRQAPGKGLEWVAKISPGGSWTYYSDTVTDRFTFSLDTSKSTAYLQMNSLRAEDTAVYYCARQLWGYYALDIWGQGTLVTVSS
VL: DIQLTQSPSSLSASVGDRVTITCSASISVSYLYWYQQKPGKAPKLLIYDDSSLASGVPSRFSGSGSGTDFTLTISSLQPEDFATYYCQQWSGYPYTFGQGTKVEIK
notes: see m23; engineered human IgG1; also called S35H G66D double mutant
For B1, the “fold increase in affinity” value (recombinant human IL-6 [1]) was roughly 1.3 fold.

B2: anti-IL-6 antibody, heavy chain S35H G66D, light chain wild-type (antibody, human IgG1, V domains shown)
VH: B1 VH
VL: B1 VL with L32M, D50M, S52N, Q88M
notes: as for B1
In the case of B2, the “fold increase in affinity” value (recombinant human IL-6 [1]) is reported as roughly 2 fold.

B3: anti-IL-6 antibody, heavy chain T65Q, G66D / light chain M32L, M50D, N52S, M88Q (antibody, human IgG1, V domains shown)
VH: B1 VH with H35S, T65Q
VL: B1 VL
notes: Human IgG1
With B3 the Kd (human IL-6 [2]) was 0.209 nM, the koff (human IL-6 [2]) was 0.00038 s⁻¹ and the kon (human IL-6 [2]) was 1.82e+06 M⁻¹ s⁻¹. The Kd (human IL-6 [3]) was 0.258 nM, the koff (human IL-6 [3]) was 0.000562 s⁻¹ and the kon (human IL-6 [3]) was 2.18e+06 M⁻¹ s⁻¹.

B4: anti-IL-6 antibody, heavy chain T63Q, G66D / light chain M32L, M50D, N52S, M88Q (antibody, human IgG1, V domains shown)
VH: B1 VH with H35S, T63Q
VL: B1 VL
notes: Human IgG1
B4 was tested, and the Kd (human IL-6 [2]) was 0.201 nM, the koff (human IL-6 [2]) was 0.000341 s⁻¹ and the kon (human IL-6 [2]) was 1.69e+06 M⁻¹ s⁻¹. The Kd (human IL-6 [3]) was 0.259 nM, the koff (human IL-6 [3]) was 0.000461 s⁻¹ and the kon (human IL-6 [3]) was 1.78e+06 M⁻¹ s⁻¹.

B5: VEGFR-Anti-IL-6 (sequences 1A-2A-3H, light chain 4A) (other)
heavy: SDTGRPFVEMYSEIPEIIHMTEGRELVIPCRVTSPNITVTLKKFPLDTLIPDGKRIIWDSRKGFIISNATYKEIGLLTCEATVNGHLYKTNYLTHRQTNTIIDVVLSPSHGIELSVGEKLVLNCTARTELNVGIDFNWEYPSSKHQHKKLVNRDLKTQSGSEMKKFLSTLTIDGVTRSDQGLYTCAASSGLMTKKNSTFVRVHEKGGGGSGGGGSEVQLVESGGGLVQPGGSLRLSCAASGFTFSPFAISWVRQAPGKGLEWVAKISPGGSWTYYSDTVTDRFTFSLDTSKSTAYLQMNSLRAEDTAVYYCARQLWGYYALDVWGQGTLVTVSSASTKGPSVFPLAPSSKSTSGGTAALGCLVKDYFPEPVTVSWNSGALTSGVHTFPAVLQSSGLYSLSSVVTVPSSSLGTQTYICNVNHKPSNTKVDKKVEPKSCDKTHTCPPCPAPEAAGAPSVFLFPPKPKDTLMISRTPEVTCVVVDVSHEDPEVKFNWYVDGVEVHNAKTKPREEQYNSTYRVVSVLTVLHQDWLNGKEYKCKVSNKALPAPIEKTISKAKGQPREPQVYTLPPSREEMTKNQVSLTCLVKGFYPSDIAVEWESNGQPENNYKTTPPVLDSDGSFFLYSKLTVDKSRWQQGNVFSCSVMHEALHNHYTQKSLSCSPGK
light: DIQLTQSPSSLSASVGDRVTITCSASISVSYLYWYQQKPGKAPKLLIYDDSSLASGVPSRFSGSGSGTDFTLTISSLQPEDFATYYCQQWSGYPYTFGQGTKVEIKRTVAAPSVFIFPPSDEQLKSGTASVVCLLNNFYPREAKVQWKVDNALQSGNSQESVTEQDSKDSTYSLSSTLTLSKADYEKHKVYACEVTHQGLSSPVTKSFNRGEC
notes: linker 2A is the double Gly-Gly-Gly-Gly-Ser repeat
B5 gave a Kd (VEGF-A165 [4]) of 0.00798 nM, a koff (VEGF-A165 [4]) of 0.000603 s⁻¹ and a kon (VEGF-A165 [4]) of 7.55e+07 M⁻¹ s⁻¹. For the same binder, the “cell-based VEGF stimulated VEGFR reporter assay (KDR/VEGF HEK293, luminescence), IC50” value (VEGF [5]) was 0.18 nM.

B6: VEGFR-AntiIL6 (other)
heavy: B5 heavy with I249M, S250H, L315A, V323I
light: B5 light
notes: VEGF trap (VEGFR1 domain 2 - VEGFR2 domain 3) fused by a GS linker to the N-terminus of the anti-IL-6 IgG1 heavy chain; also called VEGF Trap-anti-IL6 antibody fusion
For B6, the Kd (VEGF [6]) was 0.0021 nM, the Kd (human IL-6 [7]) was 0.0211 nM and the kon (human IL-6 [8]) was 1.15e+07 M⁻¹ s⁻¹. It also gave a koff (VEGF [9]) of 8.49e-05 s⁻¹, a kon (VEGF [10]) of 4.04e+07 M⁻¹ s⁻¹ and a koff (human IL-6 [11]) of 0.000242 s⁻¹.

B7: VEGFR-AntiIL6 (FIG. 27) (other)
heavy: B5 heavy with I249M, S250H, L315A, V323I
light: B5 light
With B7 the IC50 (recombinant human IL-6 [12]) was 0.26 nM, the “cell based VEGF stimulated VEGFR reporter assay, average IC50” value (VEGF [5]) was 0.51 nM and the IC50 [13] was 1.98 nM.

B8: VEGFR-AntiIL6-OG1802 (other)
heavy: B5 heavy with I249M, S250H, L315A, V323I
light: B5 light
modifications: OG1802 phosphorylcholine polymer (about 794 kDa) on Cys L443C (EU numbering; 660C in SEQ ID NO: 170) by maleimide-cysteine chemistry, one polymer per molecule
notes: also called bioconjugate
With B8 the IC50 (recombinant human IL-6 [12]) was 0.23 nM, the “cell based VEGF stimulated VEGFR reporter assay, average IC50” value (VEGF [5]) was 0.35 nM and the IC50 [13] was 0.99 nM.

B9: VEGFR-AntiIL6-OG1802 (other)
heavy: B5 heavy with I249M, S250H, L315A, V323I
light: B5 light
modifications: OG1802 phosphorylcholine biopolymer (about 794 kDa) on Cys L443C (EU numbering; 660C in SEQ ID NO: 170) by maleimide; one polymer per molecule
notes: Polymer conjugate of m3; also called VEGFR-AntiIL6 bioconjugate
Work on B9 yielded a Kd (VEGF [6]) of 0.00102 nM, a Kd (human IL-6 [7]) of 0.0121 nM and a kon (human IL-6 [8]) of 8e+06 M⁻¹ s⁻¹. The koff (VEGF [9]) was 3.83e-06 s⁻¹, the kon (VEGF [10]) was 3.75e+06 M⁻¹ s⁻¹ and the koff (human IL-6 [11]) was 9.66e-05 s⁻¹.

B10: VEGFR_variant_2-Anti-IL-6 (H95I) (other)
fusion: B5 heavy with H95I
light: B5 light
B10 was tested, and the Kd (VEGF-A165 [4]) was 0.0143 nM, the koff (VEGF-A165 [4]) was 0.00164 s⁻¹ and the kon (VEGF-A165 [4]) was 1.15e+08 M⁻¹ s⁻¹.

B11: VEGFR_variant_1-Anti-IL-6 (T94I) (other)
fusion: B5 heavy with T94I
light: B5 light
With B11 the Kd (VEGF-A165 [4]) was 0.0185 nM, the koff (VEGF-A165 [4]) was 0.00199 s⁻¹ and the kon (VEGF-A165 [4]) was 1.08e+08 M⁻¹ s⁻¹.

B12: VEGFR_variant_3-Anti-IL-6 (T94I/H95I) (other)
fusion: B5 heavy with T94I, H95I
light: B5 light
In the case of B12, the Kd (VEGF-A165 [4]) is reported as 0.0187 nM, the koff (VEGF-A165 [4]) is reported as 0.00266 s⁻¹ and the kon (VEGF-A165 [4]) is reported as 1.42e+08 M⁻¹ s⁻¹.

B13: VEGFR-Fc (VEGF trap Fc fusion, sequence 6A) (Fc fusion)
chain: SDTGRPFVEMYSEIPEIIHMTEGRELVIPCRVTSPNITVTLKKFPLDTLIPDGKRIIWDSRKGFIISNATYKEIGLLTCEATVNGHLYKTNYLTHRQTNTIIDVVLSPSHGIELSVGEKLVLNCTARTELNVGIDFNWEYPSSKHQHKKLVNRDLKTQSGSEMKKFLSTLTIDGVTRSDQGLYTCAASSGLMTKKNSTFVRVHEKDKTHTCPPCPAPEAAGAPSVFLFPPKPKDTLMISRTPEVTCVVVDVSHEDPEVKFNWYVDGVEVHNAKTKPREEQYNSTYRVVSVLTVLHQDWLNGKEYKCKVSNKALPAPIEKTISKAKGQPREPQVYTLPPSREEMTKNQVSLTCLVKGFYPSDIAVEWESNGQPENNYKTTPPVLDSDGSFFLYSKLTVDKSRWQQGNVFSCSVMHEALHNHYTQKSLSCSPGK
notes: VEGF trap with engineered IgG1 Fc (L234A, L235A, G237A, L443C); also called VEGFR-Trap Fc fusion
In the case of B13, the Kd (VEGF-A165 [14]) is reported as 0.0102 nM, the koff (VEGF-A165 [14]) is reported as 9.29e-05 s⁻¹ and the kon (VEGF-A165 [14]) is reported as 9.14e+06 M⁻¹ s⁻¹.
